# From patent US20250304927A1, “PRO-PEPTIDE VARIANTS FOR MODULATING ACTIVITY OF TRANSGLUTAMINASES” (CURIE CO. INC., priority 2022, published 2025)
# T1: evolved variant of mature Streptomyces mobaraensis transglutaminase, including a two amino acid linker and … (Streptomyces mobaraensis, UniProt P81453 79-407)
# T1 chain: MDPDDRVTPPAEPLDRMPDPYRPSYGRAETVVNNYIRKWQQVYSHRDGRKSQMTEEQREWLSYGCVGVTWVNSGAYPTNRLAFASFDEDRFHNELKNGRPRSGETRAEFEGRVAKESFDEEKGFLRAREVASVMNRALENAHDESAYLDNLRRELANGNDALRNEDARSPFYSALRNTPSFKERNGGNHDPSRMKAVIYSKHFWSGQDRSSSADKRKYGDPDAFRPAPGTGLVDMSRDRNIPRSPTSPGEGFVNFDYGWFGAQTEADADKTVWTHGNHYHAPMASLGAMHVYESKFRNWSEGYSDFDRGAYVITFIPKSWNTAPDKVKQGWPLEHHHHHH
# B1: pro-peptide variant D2S, E7S (Method B) (peptide)
# peptide: MSNGAGSETKSYAETYRLTADDVANINALNESAPAASSAGPSFRAP
# B2: pro-peptide variant L18V, D21T, D22Q (Method B) (peptide)
# peptide: MDNGAGEETKSYAETYRVTATQVANINALNESAPAASSAGPSFRAP
# B3: pro-peptide variant E7S, D21R (Method B) (peptide)
# peptide: MDNGAGSETKSYAETYRLTARDVANINALNESAPAASSAGPSFRAP
# B4: pro-peptide variant D2F (Method B) (peptide)
# peptide: MFNGAGEETKSYAETYRLTADDVANINALNESAPAASSAGPSFRAP
# B5: pro-peptide variant E7S, D21T (Method B) (peptide)
# peptide: MDNGAGSETKSYAETYRLTATDVANINALNESAPAASSAGPSFRAP
# B6: pro-peptide variant E7S, D22Q (Method B) (peptide)
# peptide: MDNGAGSETKSYAETYRLTADQVANINALNESAPAASSAGPSFRAP
# B7: pro-peptide variant L18V, D21T (Method B) (peptide)
# peptide: MDNGAGEETKSYAETYRVTATDVANINALNESAPAASSAGPSFRAP
# B8: pro-peptide variant D2I, E7S, L18V, D21R (Method B) (peptide)
# peptide: MINGAGSETKSYAETYRVTARDVANINALNESAPAASSAGPSFRAP
# B9: pro-peptide variant E7S, L18V, D21R (Method B) (peptide)
# peptide: MDNGAGSETKSYAETYRVTARDVANINALNESAPAASSAGPSFRAP
# B10: pro-peptide variant D2I, E7S, D21I (Method B) (peptide)
# peptide: MINGAGSETKSYAETYRLTAIDVANINALNESAPAASSAGPSFRAP
# B11: pro-peptide variant D2S, D21T, D22Q (Method B) (peptide)
# peptide: MSNGAGEETKSYAETYRLTATQVANINALNESAPAASSAGPSFRAP
# B12: pro-peptide variant E7S, L18V, D21I (Method B) (peptide)
# peptide: MDNGAGSETKSYAETYRVTAIDVANINALNESAPAASSAGPSFRAP
# B13: pro-peptide variant D2I, E7S, D22Q (Method B) (peptide)
# peptide: MINGAGSETKSYAETYRLTADQVANINALNESAPAASSAGPSFRAP
# B14: pro-peptide variant D2I, D22Q (Method B) (peptide)
# peptide: MINGAGEETKSYAETYRLTADQVANINALNESAPAASSAGPSFRAP
# B15: pro-peptide variant D2I, D21T, D22Q (Method B) (peptide)
# peptide: MINGAGEETKSYAETYRLTATQVANINALNESAPAASSAGPSFRAP
# B16: pro-peptide variant D2S, E7S, D21T, D22Q (Method B) (peptide)
# peptide: MSNGAGSETKSYAETYRLTATQVANINALNESAPAASSAGPSFRAP
# B17: pro-peptide variant E7S, D21T, D22Q (Method B) (peptide)
# peptide: MDNGAGSETKSYAETYRLTATQVANINALNESAPAASSAGPSFRAP
# B18: pro-peptide variant D2S, D22Q (Method B) (peptide)
# peptide: MSNGAGEETKSYAETYRLTADQVANINALNESAPAASSAGPSFRAP
# B19: pro-peptide variant D21T, D22Q (Method B) (peptide)
# peptide: MDNGAGEETKSYAETYRLTATQVANINALNESAPAASSAGPSFRAP
# B20: pro-peptide variant D2S, E7S, D21I (Method B) (peptide)
# peptide: MSNGAGSETKSYAETYRLTAIDVANINALNESAPAASSAGPSFRAP
# B21: pro-peptide variant L18V (Method B) (peptide)
# peptide: MDNGAGEETKSYAETYRVTADDVANINALNESAPAASSAGPSFRAP
# B22: pro-peptide variant D2S, L18V, D22Q (Method B) (peptide)
# peptide: MSNGAGEETKSYAETYRVTADQVANINALNESAPAASSAGPSFRAP
# Biological target: T1, evolved variant of mature Streptomyces …
# Experiment: cell-based or functional assay
# Conditions: not given
row,Molecule,Inhibition [fold]
1,B1,> 2
2,B2,> 2
3,B3,> 1.2
4,B4,> 1.2
5,B5,> 1.2
6,B6,> 1.2
7,B7,> 2
8,B8,> 2
9,B9,> 2
10,B10,> 1.2
11,B11,> 1.2
12,B12,> 2
13,B13,> 2
14,B14,> 1.2
15,B15,> 1.2
16,B16,> 2
17,B17,> 1.2
18,B18,> 2
19,B19,> 1.2
20,B20,> 1.2
21,B21,> 2
22,B22,> 2

# Biological target: T2, mature evolved transglutaminase (SEQ ID NO: 5) (Streptomyces mobaraensis, UniProt P81453, G359A/K167H/K227R/K228R/N358M/Q126S/Q150A/Q200L)
# T2 construct: hexa-His tag with two amino acid linker (C); made in house; host or cells: E. coli BL21 (DE3)
# Experiment: transglutaminase thermostability: activity after being held at 37-50 °C
# Assay type: biochemical
# Parameters: key: The symbol, —, represents not determined, neutral, or reduced performance
# Conditions: relative to wild-type pro-peptide; held at 37° C.-50° C. for 30 minutes, diluted 10-fold to 100-fold
# Method: The terms “stability” and “thermostability” are used interchangeably to refer to increased residual activity of mature transglutaminase after incubation at elevated temperatures. In some embodiments, a pro-peptide variant increases the stability of a mature transglutaminase compared to the wild type pro-peptide. Measurement of stability is depicted in Example 4.
# It is believed that these pro-peptide variants confer thermal stability to mature transglutaminase.
row,Molecule,Thermostability
1,"D21T, D22Q: combination variant of pro-peptide SEQ ID NO: 2, Method B (MDNGAGEETKSYAETYRLTATQVANINALNESAPAASSAGPSFRAP)",—
2,"L18V, D21T, D22Q: combination variant of pro-peptide SEQ ID NO: 2, Method B (MDNGAGEETKSYAETYRVTATQVANINALNESAPAASSAGPSFRAP)",—
3,"E7S, D21R: combination variant of pro-peptide SEQ ID NO: 2, Method B (MDNGAGSETKSYAETYRLTARDVANINALNESAPAASSAGPSFRAP)",—
4,"E7S, D21T: combination variant of pro-peptide SEQ ID NO: 2, Method B (MDNGAGSETKSYAETYRLTATDVANINALNESAPAASSAGPSFRAP)",—
5,"D2S, E7S, D21T, D22Q: combination variant of pro-peptide SEQ ID NO: 2, Method B (MSNGAGSETKSYAETYRLTATQVANINALNESAPAASSAGPSFRAP)",—
6,D2F: substitution variant of pro-peptide SEQ ID NO: 2 (MFNGAGEETKSYAETYRLTADDVANINALNESAPAASSAGPSFRAP) [Variant D2F],—
7,"D2I, D21T, D22Q: combination variant of pro-peptide SEQ ID NO: 2, Method B (MINGAGEETKSYAETYRLTATQVANINALNESAPAASSAGPSFRAP)",—
8,"E7S, L18V, D21I: combination variant of pro-peptide SEQ ID NO: 2, Method B (MDNGAGSETKSYAETYRVTAIDVANINALNESAPAASSAGPSFRAP)",—
9,"D2I, E7S, D22Q: combination variant of pro-peptide SEQ ID NO: 2, Method B (MINGAGSETKSYAETYRLTADQVANINALNESAPAASSAGPSFRAP)",—
10,"D2S, L18V, D22Q: combination variant of pro-peptide SEQ ID NO: 2, Method B (MSNGAGEETKSYAETYRVTADQVANINALNESAPAASSAGPSFRAP)",—
11,"D2S, E7S: combination variant of pro-peptide SEQ ID NO: 2, Method B (MSNGAGSETKSYAETYRLTADDVANINALNESAPAASSAGPSFRAP)",—
12,"E7S, L18V, D21R: combination variant of pro-peptide SEQ ID NO: 2, Method B (MDNGAGSETKSYAETYRVTARDVANINALNESAPAASSAGPSFRAP)",—
13,"D2I, E7S, D21I: combination variant of pro-peptide SEQ ID NO: 2, Method B (MINGAGSETKSYAETYRLTAIDVANINALNESAPAASSAGPSFRAP)",—
14,"D2S, D22Q: combination variant of pro-peptide SEQ ID NO: 2, Method B (MSNGAGEETKSYAETYRLTADQVANINALNESAPAASSAGPSFRAP)",—
15,"D2I, E7S, L18V, D21R: combination variant of pro-peptide SEQ ID NO: 2, Method B (MINGAGSETKSYAETYRVTARDVANINALNESAPAASSAGPSFRAP)",—
16,"D2S, E7S, D21I: combination variant of pro-peptide SEQ ID NO: 2, Method B (MSNGAGSETKSYAETYRLTAIDVANINALNESAPAASSAGPSFRAP)",—
17,"D2I, D22Q: combination variant of pro-peptide SEQ ID NO: 2, Method B (MINGAGEETKSYAETYRLTADQVANINALNESAPAASSAGPSFRAP)",—
18,"L18V, D21T: combination variant of pro-peptide SEQ ID NO: 2, Method B (MDNGAGEETKSYAETYRVTATDVANINALNESAPAASSAGPSFRAP)",—
19,"D2S, E7S, D22Q: combination variant of pro-peptide SEQ ID NO: 2, Method B (MSNGAGSETKSYAETYRLTADQVANINALNESAPAASSAGPSFRAP)",—
20,"D2S, D21T, D22Q: combination variant of pro-peptide SEQ ID NO: 2, Method B (MSNGAGEETKSYAETYRLTATQVANINALNESAPAASSAGPSFRAP)",—
21,"E7S, D21T, D22Q: combination variant of pro-peptide SEQ ID NO: 2, Method B (MDNGAGSETKSYAETYRLTATQVANINALNESAPAASSAGPSFRAP)",—
